The values below come from patent publication US20170138958A1.

Assay [1] concerns the target Fr. 3 antigen (C-terminal region, zinc finger region, positions 294-449 of WT1) (human) (UniProt P19544). In words: antigen inhibition ELISA on immobilised Fr. 3; antibody whose binding is inhibited: serum sample No. 9. In general terms: In an ELISA, binding on a coated surface is turned into a signal by an enzyme label.
Assay [2] has the same target. The assay can be described thus: antigen inhibition ELISA on immobilised Fr. 3; antibody whose binding is inhibited: C-19 (PoAb).
For assay [3] the target is unchanged. In words: antigen inhibition ELISA on immobilised Fr. 3; antibody whose binding is inhibited: serum sample No. 7.
For assay [4] the target is unchanged. The assay can be described thus: antigen inhibition ELISA on immobilised Fr. 3; antibody whose binding is inhibited: serum sample No. 3.

Sequence of UniProt P19544 (P19544 294-449): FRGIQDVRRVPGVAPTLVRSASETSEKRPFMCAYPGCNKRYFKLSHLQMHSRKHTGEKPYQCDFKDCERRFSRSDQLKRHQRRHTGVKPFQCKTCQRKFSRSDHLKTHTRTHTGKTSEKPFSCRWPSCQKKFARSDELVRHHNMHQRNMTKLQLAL

“Fr. 1 antigen (recombinant hWT1 Fr. 1, N-terminal region, positions 1-182 of WT1) (from UniProt P19544 1-182)”: the percent inhibition in assay [1] was found to be 40%; in assay [2], 25%; in assay [3], 10%.
Turning to “Fr. 2 antigen (hWT1 Fr. 2, central region, positions 181-324 of WT1) (from UniProt P19544 181-324)”, the values for the percent inhibition in assay [2], in assay [3] and in assay [4] were 50%, 20% and 70%, respectively.
